One data set concerns the target T1, endogenous KNTC2 (Homo sapiens, UniProt O14777).
T1 construct: endogenous in cells; host or cells: LC319
T1 sequence (O14777 1-642): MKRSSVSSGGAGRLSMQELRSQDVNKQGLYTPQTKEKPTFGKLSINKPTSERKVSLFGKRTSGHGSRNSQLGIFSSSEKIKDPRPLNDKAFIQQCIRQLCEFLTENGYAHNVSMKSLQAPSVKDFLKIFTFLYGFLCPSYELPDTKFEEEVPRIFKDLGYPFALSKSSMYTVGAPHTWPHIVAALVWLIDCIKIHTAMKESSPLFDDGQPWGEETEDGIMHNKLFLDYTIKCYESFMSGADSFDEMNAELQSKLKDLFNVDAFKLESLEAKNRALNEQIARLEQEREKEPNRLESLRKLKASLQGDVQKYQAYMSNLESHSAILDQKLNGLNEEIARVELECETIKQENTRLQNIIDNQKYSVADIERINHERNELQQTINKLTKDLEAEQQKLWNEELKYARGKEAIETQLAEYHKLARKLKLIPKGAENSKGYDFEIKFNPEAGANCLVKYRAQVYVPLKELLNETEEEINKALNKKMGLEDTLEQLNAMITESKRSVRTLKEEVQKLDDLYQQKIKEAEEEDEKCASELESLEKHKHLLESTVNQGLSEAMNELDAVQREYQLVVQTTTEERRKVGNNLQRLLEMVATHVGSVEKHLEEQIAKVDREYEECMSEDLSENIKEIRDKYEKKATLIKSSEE
The data set can be described thus: Immunoprecipitation of FLAG-tagged CDCA1 deletion-constructs in LC319 cells. The settings on record: LC319 cells transfected with deletion-construct. The data set is classed as binding. On the procedure:
(g) Identification of the KNTC2-binding region in CDCA1: Eleven deletion-constructs of CDCA1 (CDCA1 200-464, CDCA1 149-464, CDCA11-348, CDCA11-148, CDCA1 149-306, CDCA1 306-464, CDCA1 319-464, CDCA1 277-416, CDCA1 277-367, CDCA1 319-416, and CDCA1 319-367) were cloned into appropriate sites of C-terminal FLAG-tagged-pCAGGS vector. Cell extracts from lung-cancer cell line LC319, transfected with plasmids expressing eleven deletion-constructs of CDCA1 were pre-cleared by incubation at 4° C. for 1 hour with 100 μl of protein G-agarose beads in final volumes of 2 ml of immunoprecipitation buffer (0.5% NP-40, 50 mM Tris-HCl, 150 mM NaCl) in the presence of proteinase inhibitor. After centrifugation at 1,000 rpm for 5 min at 4° C., the supernatants were incubated at 4° C. with anti-FLAG M2 agarose for 2 hours. After the beads were collected from each sample by centrifugation at 5,000 rpm for 2 min and washed six times with 1 ml of immunoprecipitation buffer, the washed beads were re-suspended in 50 μl of Laemmli sample buffer and boiled for 5 min before the proteins were separated on 10% SDS PAGE gels. Immunoblot was performed using KNTC2 polyclonal antibody (Abcom, Inc.) and anti-FLAG M2 monoclonal antibody respectively (Sigma-Aldrich Co.).

A short description of data set [1]: Mouse model: body weight and food intake. As to conditions: intratumoral 0.15 μmol/body/day for 7 weeks, among three treatment groups, data not shown. The data set is classed as in vivo, BALB/c nude mice. On the procedure: (n) Mouse model: The animal experiments were conducted according to the institutional and national guidelines for the care and use of laboratory animals, and approved by the institutional animal use committee. 1×10^6 of A549 cells were subcutaneously implanted into the right shoulder of 6-week-old male BALB/c nude mice (nu/nu). Two weeks after the injection, the mice with tumor (30 mm^3 volume on average) were randomized into three groups and intratumorly administered with 11R-CDCA1398-416 peptides (0.15 μmol/body/day), scramble (0.15 μmol/body/day), or PBS (control) for 7 weeks. Tumor volume was measured once a day by using a caliper and applying the data to the formula (volume=0.52×[width]^2×[length]) to calculate the volume of a spheroid.

Another data set deals with MRC5 cells. The data set can be described thus: MTT assay, 11R-peptides on normal lung fibroblasts. Format: cell-based. The settings on record: normal human lung fibroblast derived MRC5 cells, hardly detectable CDCA1 and KNTC2. As to the method:
(m) Effect of 11R-peptides on lung-cancer cell growth: LC319 and […] and normal human lung fibroblast derived MRC5 cells were incubated with 11R-peptides at the concentration of 5 μM, 10 μM, and 20 μM for seven days. The medium was exchanged every other day at the appropriate concentrations of each peptide and the viability of cells was evaluated by MTT assay at 7 days after the treatment; briefly, cell-counting kit-8 solution (DOJINDO, Kumamoto, Japan) was added to each dish at a concentration of 1/10 volume, and the plates were incubated at 37° C. for additional 4 hours. Absorbance was then measured at 490 nm, and at 630 nm as a reference, with a Microplate Reader 550 (BIO-RAD). Flow-cytometric analysis was performed as described previously (Suzuki, C. et al. Cancer Res. 65, 11314-11325 (2005).).
Background: Formazan colour is commonly taken as a measure of viable cells.

In another data set the test system is LC319 cells. The data set can be described thus: MTT assay after transfection of dominant-negative CDCA1 fragment. Format: cell-based, human. As to conditions: LC319 transfected with fragment plasmid; P=0.0026 CDCA1 200-464 vs CDCA1 149-306.
The next data set addresses T2, CDCA1-KNTC2 complex (Homo sapiens, UniProt O14777).
T2 construct: full length) and endogenous KNTC2; expressed in transfected cells; host or cells: LC319
T2 sequence (O14777 1-642): T1 sequence (O14777 1-642)
The data set can be described thus: Immunoprecipitation: suppression of CDCA1-KNTC2 complex formation in LC319 cells. Format: binding. The settings on record: LC319 cells co-transfected with CDCA1 1-464 and the fragment. On the procedure:
(f) Identification of CDCA1-associated Proteins: Cell extracts from lung-cancer cell line LC319 were pre-cleared by incubation at 4° C. for 1 hour with 50 μl of protein A and G-agarose beads, in final volumes of 2 ml of immunoprecipitation buffer (0.5% NP-40, 50 mM Tris-HCl, 150 mM NaCl) in the presence of proteinase inhibitor. After centrifugation at 1,000 rpm for 5 min at 4° C., the supernatants were incubated at 4° C. with anti-CDCA1 polyclonal antibody, anti-KNTC2 polyclonal antibody, or normal rabbit IgG for 2 hours. […] The nucleotide sequence of each cDNA clone was determined with an ABI Prism 3700 DNA sequencer (Applied Biosystems, Foster City, Calif.), using T3, T7, or synthetic oligonucleotide primers according to the manufacturer's instructions. […]
Since the band of endogenous CDCA1 immunoprecipitated with anti-CDCA1/KNTC2 antibody overlapped with IgG-heavy chain bands, it was difficult to detect the interaction between endogenous CDCA1 and KNTC2. […] Interaction of only CDCA1 1-464 (full length) or CDCA1 200-464 with endogenous KNTC2 was detected by immunoprecipitation using anti-KNTC2 polyclonal antibody (FIG. 5A; left top panel; black and white arrows). […]

“Also recorded” adds a separate entry of the source. Where no end group is shown, it is not given here.

As for “CDCA1 319-367: C-terminal FLAG-tagged deletion-construct of CDCA1 (NLEDQIESDESELKKLKTEENSFKRLMIVKKEKLATAQFKINKKHEDVK-{FLAG tag})”, in the data set with endogenous KNTC2, the “interaction with endogenous KNTC2” value was “unable to interact”.

Regarding “RRRRRRRRRRRGGGIQKIKLGIQQLKDAAEREK [11R-CDCA1 398-416]”, in data set [1], the body weight entry is recorded as “no difference” and the food intake result is given as “no difference”. Further, the “cell viability (MTT)” value in the data set on MRC5 cells is reported as “no off-target effect”.

B1: CDCA1 200-464: C-terminal FLAG-tagged deletion-construct of CDCA1 lacking the N-terminal portion; dominant-negative fragment (protein)
chain: QKTIVLQEGNSQKKSNISEKTKRLNELKLLVVSLKEIQESLKTKIVDSPEKLKNYKEKMKDTVQKLKNARQEVVEKYEIYGDSVDCLPSCQLEVQLYQKKIQDLSDNREKLASILKESLNLEDQIESDESELKKLKTEENSFKRLMIVKKEKLATAQFKINKKHEDVKQYKRTVIEDCNKVQEKRGAVYERVTTINQEIQKIKLGIQQLKDAAEREKLKSQEIFLNLKTALEKYHDGIEKAAEDSYAKIDEKTAELKRKMFKMST
modifications: left off: small tags and cut ends
notes: C-terminal FLAG-tagged deletion-construct of CDCA1 lacking the N-terminal portion; dominant-negative fragment
In the case of B1, the “cell viability (MTT)” value in the data set on LC319 cells was “significant decreases; also recorded: dominant-negative effect”. Besides, in the data set with CDCA1-KNTC2 complex, the “complex formation between exogenous CDCA1 (full length) and endogenous KNTC2” value is listed as “reduced complex formation; also recorded: reduction of the complex formation”. Also, the “interaction with endogenous KNTC2” value in the data set with endogenous KNTC2 is on record as “strongest affinity; also recorded: Interaction”.

B2: CDCA1 277-367: C-terminal FLAG-tagged deletion-construct of CDCA1 (protein)
chain: EIYGDSVDCLPSCQLEVQLYQKKIQDLSDNREKLASILKESLNLEDQIESDESELKKLKTEENSFKRLMIVKKEKLATAQFKINKKHEDVK
modifications: left off: small tags and cut ends
For the molecule B2, the “interaction with endogenous KNTC2” value with endogenous KNTC2 is “unable to interact”.

B3: CDCA11-148: C-terminal FLAG-tagged deletion-construct of CDCA1 (protein)
chain: METLSFPRYNVAEIVIHIRNKILTGADGKNLTKNDLYPNPKPEVLHMIYMRALQIVYGIRLEHFYMMPVNSEVMYPHLMEGFLPFSNLVTHLDSFLPICRVNDFETADILCPKAKRTSRFLSGIINFIHFREACRETYMEFLWQYKSS
modifications: left off: small tags and cut ends
notes: C-terminal FLAG-tagged deletion-construct of CDCA1
For the molecule B3, the “interaction with endogenous KNTC2” value with endogenous KNTC2 is “unable to interact; also recorded: did not retain any appreciable ability to interact”.

B4: CDCA1 149-306: C-terminal FLAG-tagged deletion-construct of CDCA1, served as a control (protein)
chain: ADKMQQLNAAHQEALMKLERLDSVPVEEQEEFKQLSDGIQELQQSLNQDFHQKTIVLQEGNSQKKSNISEKTKRLNELKLLVVSLKEIQESLKTKIVDSPEKLKNYKEKMKDTVQKLKNARQEVVEKYEIYGDSVDCLPSCQLEVQLYQKKIQDLSDN
modifications: left off: small tags and cut ends
notes: C-terminal FLAG-tagged deletion-construct of CDCA1, served as a control
As for B4, the “interaction with endogenous KNTC2” value with endogenous KNTC2 is given as “unable to interact”; with endogenous KNTC2 (listed as CDCA1149-306) it was “did not retain any appreciable ability to interact”.
